± gives the half width of the 95% confidence interval.
Key:
[1] = folding stability dG unfold from chymotrypsin proteolysis; higher = more stable
In short: (§1)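 Only designs with AlphaFold2 dimer inter-PAE above 15 were retained; each was a mini-protein under 80 residues with no cysteine, in a PA-tagged cDNA display construct. After digestion with trypsin and chymotrypsin and sequencing, K50 was inferred by Bayesian fitting of counts, and unfolding free energy was derived per protease or combined against a sequence-predicted unfolded-state K50 and a shared folded-state K50.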

[2] = folding stability dG unfold (combined trypsin and chymotrypsin); higher = more stable
In short: as §1

[3] = folding stability dG unfold from trypsin proteolysis; higher = more stable
In short: as §1

Sequence | folding stability dG unfold [1] | folding stability dG unfold [2] | folding stability dG unfold [3]
SAGGSAGGSAGGKPKTVKIIRDKKTNRLLIERDGKVYEFDVDNVEVREVTLEDLKEEELSAGGSAGGSAGGS [r10_512_TrROS_Hall] | 1.2 ± 0.045 kcal/mol | 0.88 ± 0.14 kcal/mol | 0.576 ± 0.14 kcal/mol
SAGGSAGGSAGMKTTTLEVSTDPSGYTTTKTKIEIINENTPSISTSTVVTAVTPPAPPIASAGGSAGGSAGG [r11_830_JUSTAS] | 0.122 ± 0.11 kcal/mol | 0.195 ± 0.057 kcal/mol | 0.133 ± 0.017 kcal/mol
SAMTIEEAIEKGKIGAIVKVEVELPNGGKIEIEIFIESESLEEALEKIKAFFEALNLKVKIIEVKVFPVSAG [r14_854_TrMRF] | 2.87 ± 0.1 kcal/mol | 3.09 ± 0.36 kcal/mol | 3.4 ± 0.19 kcal/mol
SAGGSAGGSAGGSMKIYKITVKKEDSELEFYVSDDVPAEVAANILKALYPDVEVKIEEGSAGGSAGGSAGGS [r4_155_TrMRF] | 1.1 ± 0.1 kcal/mol | 1.11 ± 0.15 kcal/mol | 1.25 ± 0.048 kcal/mol
SMSEVVEESEFNGEKVITIKVTLPDGTPVTVTITLSPEGEGTVTTVPPSSSTSTTTTVPVSQVDEVLEALSA [r9_91_JUSTAS] | 1.4 ± 0.031 kcal/mol | 1.61 ± 0.074 kcal/mol | 1.95 ± 0.061 kcal/mol
SAGNIKIKEVEINDNTLTISYRMPGSGMWVKASIQADKGAIKIKSEYYPPKGKPIGEEEFTVPLDELKLSAG [r5_308_TrROS] | 1.74 ± 0.31 kcal/mol | 1.45 ± 0.28 kcal/mol | 0.979 ± 0.042 kcal/mol
SAGTIVFSRDELKELGIPEDMTVEEIKQKILDRLKEEGYEVKITKIEVVEVDEEEGRVLVRITIEVKKPSAG [r5_23_TrROS_Hall] | 4.28 ± 0.13 kcal/mol | 4.17 ± 0.13 kcal/mol | 3.69 ± 0.14 kcal/mol
SAGGMSPELKKNKNVEKVIYNKKTGKVFVYNKKTKKLYIFTKNGKKIEIKMSKDEVEKLLKKGFKPISAGGS [r16_745_TrROS_Hall] | 3.22 ± 0.16 kcal/mol | 2.86 ± 0.2 kcal/mol | 2.14 ± 0.11 kcal/mol
SMYKLSVYRNGQPVPEEEALERVKRIEEELGREVDPEELARLLAAEPDTVVTVTKYAEPGKPIGTLTYTRSA [r9_1045_JUSTAS] | 1.4 ± 0.17 kcal/mol | 1.39 ± 0.16 kcal/mol | 1.32 ± 0.08 kcal/mol
SAGGSAGGSAGPALRIPFLVERPDGSPFWAEARVYEDGTVELRIYGDEPIATFTFPLDELSAGGSAGGSAGG [r11_327_TrMRF] | 1.6 ± 0.15 kcal/mol | 1.68 ± 0.15 kcal/mol | 1.55 ± 0.044 kcal/mol
SAGGSAMRIKVTLENGEEIEIEIEESMTEEEVKELAEELAKKLAEELGIKEVKVEVEEVELPEEEESAGGSA [r15_33_TrROS_Hall] | 2.96 ± 0.054 kcal/mol | 2.53 ± 0.11 kcal/mol | 1.68 ± 0.11 kcal/mol
SMSEKVEIDPAAIAEALKAGTEYEFDIKVTVTLFDPSNGKKVSTEEKVVKVKLKIPPPSPLPDPKNGYLLSA [r9_396_JUSTAS] | 1.4 ± 0.079 kcal/mol | 1.29 ± 0.2 kcal/mol | 1.11 ± 0.038 kcal/mol
SAGMKPGETIKNAKIRITYPNGEKKELKIDDVVKIVEIDEEKGVITIELKNGEKIEIKLPPGAKIEIEPSAG [r5_762_TrROS_Hall] | 1.83 ± 0.24 kcal/mol | 3.2 ± 0.58 kcal/mol | 3.42 ± 0.26 kcal/mol
SAGGSWRVSVQFPDGKKIKIPEEPIQKIIQEYGIPPDPGDPERMVERIANRIADKYGYPVKNIEIDSAGGSA [r2_83_TrROS] | 0.385 ± 0.13 kcal/mol | 0.0663 ± 0.15 kcal/mol | -0.377 ± 0.42 kcal/mol
SAGGSAGGSAGGMRLVRITTEDGRTITAPVGETITITRPDGSKVKITRVEVFELPPEDLSAGGSAGGSAGGS [r10_20_TrROS_Hall] | 1.51 ± 0.025 kcal/mol | 1.23 ± 0.041 kcal/mol | 0.744 ± 0.021 kcal/mol
SAGGSAGGSKEKKYLVIELKLKVPPGMSPEELAKLLESLPGLKVVEIVEVDEESGTVKIVVELSAGGSAGGS [r12_712_TrROS_Hall] | 3.54 ± 0.096 kcal/mol | 3.07 ± 0.16 kcal/mol | 2.02 ± 0.046 kcal/mol
SAGPLPEDVAAGKPVDVEAPIPLRRKDGDLLAVFPITGPMTVKELLEVLEAIRERARELDLPPVEDLDRSAG [r5_606_TrMRF] | -0.268 ± 0.21 kcal/mol | 0.181 ± 0.065 kcal/mol | 0.36 ± 0.047 kcal/mol
SAGGGMTVTIEVEGSIKKSIKGISYKDDKEKKESNKNKYLKKTITVTLTAEDDPNAAAAAIAALGLGSAGGS [r16_467_JUSTAS] | 0.313 ± 0.21 kcal/mol | 0.181 ± 0.25 kcal/mol | 0.144 ± 0.23 kcal/mol
SAGPEKPFDIVIVEVKSMEVHEDPNGRRSVRIPVVARIPGGYYIRFEIWINPPTGNVSIDWEIVPLDDSAGG [r19_320_TrROS] | 4.21 ± 0.12 kcal/mol | 3.82 ± 0.14 kcal/mol | 2.73 ± 0.047 kcal/mol
SAKILEIKPLPDGTVIIKIPVDAPEDVDPKEVKILVKSEEGVKEAEILEDGTIDIVVENVKDVKIEIFVESA [r9_722_TrMRF] | 0.382 ± 0.074 kcal/mol | 0.359 ± 0.1 kcal/mol | 0.305 ± 0.061 kcal/mol
SMKKTYTFPVTLVPKDGKASLTVNWYAPDGTSLGTQTKSASAEGNTVTATVTVTVDAPPGAKIPSITVNASA [r9_292_JUSTAS] | 0.473 ± 0.052 kcal/mol | 0.353 ± 0.038 kcal/mol | 0.091 ± 0.041 kcal/mol

Sequence | folding stability dG unfold [1] | folding stability dG unfold [2] | folding stability dG unfold [3]
SAGGKKKITITIEEVEELENGPLVYRVTIEVDGKTYEILIEADSLEEAKAAAEKLAEELNVEVTIEPVSAGG [r13_750_TrROS_Hall] | 4.22 ± 0.048 kcal/mol | 3.86 ± 0.11 kcal/mol | 2.55 ± 0.097 kcal/mol
SAGGSAGGSAMEITITVPKENEEEVLEAAKKALEELGIEEVKVEKLEDGTYKVTARVKPGLSAGGSAGGSAG [r3_335_TrROS_Hall] | 0.219 ± 0.14 kcal/mol | 0.361 ± 0.2 kcal/mol | 0.325 ± 0.12 kcal/mol
SFHVERDPEDNTIYIHFPPGMDPLELAKSLLKELREQQDDGPIKIHVHYGDWVFEIDIKKGKIEVRPPGESA [r9_224_TrROS] | 1.19 ± 0.16 kcal/mol | 1.23 ± 0.18 kcal/mol | 1.41 ± 0.1 kcal/mol
SAGGSAGGSAGGKKTITVTVKINGKTYRVEIKYDEKTKKVTIKIEVNGKKYEFEFELKDSAGGSAGGSAGGS [r10_438_TrROS_Hall] | 4.42 ± 0.25 kcal/mol | 4.54 ± 0.36 kcal/mol | 4.73 ± 0.96 kcal/mol
SDKIKNMTIEEILKKLPKGVKVGEKVEIEIDGKKITITKVEVVKDKNGKEIKRIYIEVEIDGEKIIIEIESA [r9_279_TrROS_Hall] | 2.36 ± 0.27 kcal/mol | 2.69 ± 0.46 kcal/mol | 2.39 ± 0.23 kcal/mol
SAGGMYEIVDLLSVEPDPETGALTRTFLLRDPDSDRFLVAEVRIDPENPDRVEIRLYDEDGNLIAEFPSAGG [r13_658_TrMRF] | 4.148 ± 0.034 kcal/mol | 3.93 ± 0.045 kcal/mol | 3.36 ± 0.083 kcal/mol
SAGGKPGEKPRIRIQVKVRYPGNGRKQSITIEIVPDAIEQGLSASELADEIARKMGMPVKIEEIEILSAGGS [r16_554_TrROS] | 1.692 ± 0.013 kcal/mol | 1.79 ± 0.04 kcal/mol | 1.873 ± 0.015 kcal/mol
SAGGSAGGSAGGNPGGKRQWVMMEFPIPPGKKIELPPNFNVSIFRDNDRLWLMITVDAVKSAGGSAGGSAGG [r7_584_TrROS] | 1.88 ± 0.06 kcal/mol | 1.9 ± 0.11 kcal/mol | 1.7 ± 0.07 kcal/mol
SAGGSAGGSAGLTKPVEVEVEEDGTVTIKTLSIVPVDDGYELHEETTEIPLSPEEIAALQSAGGSAGGSAGG [r17_415_JUSTAS] | -0.158 ± 0.33 kcal/mol | 0.327 ± 0.17 kcal/mol | 0.504 ± 0.035 kcal/mol
SAGGSAGGSAGMGVPPDGATLRFTYPESPSSTRTFTSPEEAAAWIAANLPPEHSVSFSPASAGGSAGGSAGG [r11_983_JUSTAS] | 0.863 ± 0.12 kcal/mol | 0.684 ± 0.084 kcal/mol | 0.25 ± 0.1 kcal/mol
SPVEIVSEETDPNGGTKYKTYSNPQADVRIEVAYPSSGITITVHFPDSTSTKSFSSEADAEKEVVRLAASSA [r9_527_JUSTAS] | 0.944 ± 0.15 kcal/mol | 0.711 ± 0.11 kcal/mol | 0.339 ± 0.086 kcal/mol
MIPLTLEYDPEKKVIRLKTPDGKPVIVEAGDKGYRVIIYDPKTGKPTVIPVTEKELLDLAKNPAFNLDLAAS [r1_18_TrMRF] | 1.23 ± 0.076 kcal/mol | 1.65 ± 0.059 kcal/mol | 1.94 ± 0.025 kcal/mol
SAGGSQLDEYRKKVEEAIEKAKAEGKPVEKIELTGSEEVAKEVREWLEEQGIPKSVKVTVTPPAINESAGGS [r16_164_JUSTAS] | 1.13 ± 0.015 kcal/mol | 0.83 ± 0.077 kcal/mol | 0.433 ± 0.04 kcal/mol
SNPWVEITIYFPMRPDPNGKMQPLSPSELLEELLKQGFPIKDIDIDEVTDNYIPITIRIDAKDGKIEIEWSA [r9_225_TrROS] | 3.18 ± 0.13 kcal/mol | 2.85 ± 0.19 kcal/mol | 2.12 ± 0.21 kcal/mol
SMKPVKITEVTEDTITVTVTVYDKETNRLVKVTAEITFDKETKKLTIKVKVEVLPPLSEEQRKALEEALKSA [r9_1038_TrROS_Hall] | 2.94 ± 0.07 kcal/mol | 2.74 ± 0.17 kcal/mol | 1.98 ± 0.076 kcal/mol
SAGGSAGGKPKIIEEKELEFTRKDGKKVKIKLVKNEDGKVFAFNKDTGKVITLPLDELKALLKSSAGGSAGG [r6_579_TrROS_Hall] | 2.37 ± 0.024 kcal/mol | 2.27 ± 0.054 kcal/mol | 1.87 ± 0.052 kcal/mol
SAPPPVQTLTLTVYDPETGRLVKIEVTRRPDGTLEVRVEVVDLETNEVTTETITLPGLTLDELLKLLEEASA [r9_618_TrROS_Hall] | 4.02 ± 0.16 kcal/mol | 3.65 ± 0.16 kcal/mol | 3.09 ± 0.16 kcal/mol
SMTITFKTEEEAKKAAEELLKELEKKLKPGQKIKITVTTEDGKTITIEIEIKPPKKEVEVDEETGELKEKSA [r9_596_TrROS_Hall] | 2.26 ± 0.081 kcal/mol | 1.97 ± 0.18 kcal/mol | 0.898 ± 0.073 kcal/mol
SAGMKAYIVSVEKNEDGTETIKLKVYFLDKNGKVVETKEITIKKGETIKITFPNGKTITVPAKDLKLVKSAG [r5_137_TrROS_Hall] | 3.703 ± 0.033 kcal/mol | 3.24 ± 0.082 kcal/mol | 2.02 ± 0.083 kcal/mol
SAGGSAGGSAAISIDLPPNSVLNISIPVTEPGGKPYTVKISVYSTPLPSNSYELNIKVTIVSAGGSAGGSAG [r3_347_JUSTAS] | 4.66 ± 0.093 kcal/mol | 4.43 ± 0.12 kcal/mol | 3.56 ± 0.15 kcal/mol
